Our source for the stoichiometry N values is publication PMC9667302.

As usually defined, the stoichiometry N is the number of molecules, sites or subunits per partner or assembly.

The assay addresses Bluetongue virus (BTV-1) membrane penetration protein VP5 (bluetongue virus (BTV-1)). Put plainly: cryo-EM structure.

For the substance “Bluetongue virus (BTV-1) membrane penetration protein VP5 (natural protein)”, the stoichiometry N was 3.
